# According to patent publication US20250361297A1, “ANTI- SIGLEC-15 BINDING MOLECULES AND METHODS OF USE” (ADAPTAM THERAPEUTICS, S.L., priority 2024, published 2025):
# T1: human Siglec-15 (Homo sapiens, UniProt Q6ZMC9)
# T1 construct: expressed in transfected cells
# T1 sequence (Q6ZMC9 20-328): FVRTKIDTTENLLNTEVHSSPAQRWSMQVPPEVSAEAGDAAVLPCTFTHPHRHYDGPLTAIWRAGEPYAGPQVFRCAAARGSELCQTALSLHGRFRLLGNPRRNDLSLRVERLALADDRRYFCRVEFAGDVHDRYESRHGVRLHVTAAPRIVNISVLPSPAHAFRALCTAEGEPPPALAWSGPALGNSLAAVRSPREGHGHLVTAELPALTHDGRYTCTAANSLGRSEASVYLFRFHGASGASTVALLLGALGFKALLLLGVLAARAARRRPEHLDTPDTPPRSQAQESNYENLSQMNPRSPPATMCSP
# T2: mouse Siglec-15 (Mus musculus, UniProt A7E1W8)
# T2 construct: HEK293T cells were genetically engineered to express full-length mouse Siglec-15; expressed in transfected cells; host or cells: HEK293T
# T2 sequence (A7E1W8 24-342): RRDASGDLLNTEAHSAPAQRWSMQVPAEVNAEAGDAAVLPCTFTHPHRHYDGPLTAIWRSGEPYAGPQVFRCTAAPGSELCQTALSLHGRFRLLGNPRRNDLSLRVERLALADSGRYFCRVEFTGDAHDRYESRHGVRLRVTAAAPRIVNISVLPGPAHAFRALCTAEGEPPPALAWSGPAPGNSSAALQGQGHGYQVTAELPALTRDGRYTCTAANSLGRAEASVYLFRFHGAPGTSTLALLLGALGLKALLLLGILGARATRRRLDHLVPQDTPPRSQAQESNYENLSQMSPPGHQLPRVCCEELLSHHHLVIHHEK
# B1: ZLA-1243-E01: fully human anti-Siglec-15 IgG1, silenced Fc, phage display; VH SEQ ID NO: 34, VL SEQ ID NO: 35 (antibody, V domains shown)
# VH: QVQLVQSGGGLVQPGRSLRLSCAASGFTFDDYAMHWVRQAPGKGLEWVSGISWNSGSIGYADSVKGRFTISRDNAKNSLYLQMNSLRAEDTALYYCAKGLWPSYDLDAFDIWGQGTMVTVSS
# VL: QSALTQPASVSGSPGQSITLSCTGTSSDVGAYNFVSWYQQHPGTAPKLMIYEVSNRPSGVSDRFSGSKSGNTASLTISGLQAEDEADYYCSSYTSTIPPFVFGTGTKVTVL
# modifications: IgG1 silenced Fc; ZLA-1243-E01 VH; ZLA-1243-E01 VL
# Columns and labels:
# human Siglec-15 [1] = biological target: T1, human Siglec-15; experiment: Titration of full-length IgG1 antibodies on human Siglec-15 (ELISA / flow cytometry on MOLM-13 Siglec-15 cells); assay type: binding; conditions: full-length human IgG1, titrated from 10 μg/ml
# Experimental: The binding efficacy of the converted full-length IgG1 anti-Siglec-15 antibodies was then evaluated using both ELISA and flow cytometry. By immobilizing the antigen and titrating the antibodies starting at a concentration of 10 μg/ml, binding kinetics were determined via ELISA, using an anti-human IgG Fab-specific secondary antibody for detection. Palivizumab served as the negative control in these assays (FIG. 8A). Complementary to the ELISA, flow cytometry assays provided insight into the binding behavior of the antibodies on the cell surface. […] From these assays, EC50 values were calculated, offering a quantitative measure of the antibodies' affinity towards Siglec-15, and leading to the selection of 7 unique hits (Table 10).
# For the ELISA, antigens were immobilized on high-binding plates, and the full-length IgG1 anti-Siglec-15 antibodies were titrated beginning at a concentration of 10 μg/ml. […] Optical densities were measured to generate binding curves from which EC50 values were derived. […] Flow cytometric analysis was conducted, and fluorescence intensity was used to calculate EC50 values, providing a quantitative assessment of the antibodies' cell surface binding efficacy. […] Antibodies were titrated starting at a concentration of 10 μg/ml and detected with an anti-human Fc-specific secondary antibody to detect bound primary antibodies. […]
# Siglec-15 positive cells = experiment: Internalization assay (Zenon pHrodo iFL Green); assay type: cell-based; conditions: kinetics over 1, 2, 4, 16, and 24 hours
# Experimental: Internalization assay (Zhenon pHrodo): Sufficient volumes of 4× working solution of anti-Siglec-15 antibodies (10 nM) were prepared in cell culture medium for a total of 25 μL for each well of a 96-well plate. A working solution of Zenon™ pHrodo™ iFL IgG Labeling Reagent was prepared at 30 nM and 25 μL were added to each well. The mix was incubated for 5 minutes at room temperature to allow the labeling complexes to form. 5 mL of suspension cells at 2×10^6 cells/mL in cell culture medium were prepared and 50 μL of cells were added to each well of the 96-well plate containing the mix of anti-Siglec-15 antibody and the Zenon™ labeling reagent. Cells were incubated with the labeling complex for different timepoints (1-24 hours) under standard cell culture conditions. Fluorescence was analyzed by flow cytometry.
# human Siglec-15 [2] = biological target: T1, human Siglec-15; experiment: Competitive flow cytometry assay with benchmark antibodies; assay type: binding
# Experimental: Epitope mapping assay by Flow cytometry: Competition with benchmark mouse IgG antibodies: 50,000 cells/well of THP-1 S15 OE were added to a round bottom 96 well plate, and centrifuged at 450×G for 5 minutes, and the supernatant was discarded. Human anti-siglec-15 IgG antibodies (starting at 198 nM, 3-fold serial dilution in staining buffer) were added to 100 μl of staining buffer and cells were resuspended with it and incubated for 40 minutes on ice. 100 μl of staining buffer were added to wells, centrifuged at 450× G for 5 minutes and the supernatants discarded. Benchmark mouse IgG antibodies were diluted at 33.3 nM and cells resuspended in 100 μl of the mix and incubated for 40 minutes on ice. Then, 100 μl of staining buffer were added to wells, centrifuged at 450×G for 5 minutes and the supernatants discarded. The secondary antibody anti-mouse IgG-Alexa647 was prepared at 1:200 dilution in 100 μl of staining buffer and added to each well, and cells were incubated for 40 minutes on ice. Cells were washed with 100 μl of staining buffer and centrifuged at 450×G for 5 minutes to discard the supernatant. Cells were resuspended in 150 μl of staining buffer and acquired in a flow cytometer.
# mouse Siglec-15 = biological target: T2, mouse Siglec-15; experiment: Titration on HEK293T cells expressing mouse Siglec-15 (flow cytometry); assay type: binding; conditions: titrated from 10 μg/ml
# Experimental: Cross-species reactivity and domain-specific binding of the full-length anti-Siglec-15 antibody candidates were evaluated. The antibodies were titrated against HEK293T cells expressing mouse Siglec-15 or HEK293T cells expressing a truncated human Siglec-15 consisting solely of domain 2 (FIG. 9). […] However, the binding to mouse Siglec-15 was evident for all tested antibodies, with EC50 values calculated to rank the affinity of the antibodies.
# For the ELISA, antigens were immobilized on high-binding plates, and the full-length IgG1 anti-Siglec-15 antibodies were titrated beginning at a concentration of 10 μg/ml. After washing, an anti-human IgG Fab-specific HRP-conjugated secondary antibody was applied for detection. […] Optical densities were measured to generate binding curves from which EC50 values were derived. […] Flow cytometric analysis was conducted, and fluorescence intensity was used to calculate EC50 values, providing a quantitative assessment of the antibodies' cell surface binding efficacy. […] Antibodies were titrated starting at a concentration of 10 μg/ml and detected with an anti-human Fc-specific secondary antibody to detect bound primary antibodies. The half-maximal effective concentration (EC50) was calculated for each antibody to determine its binding affinity to mouse Siglec-15. Results were analyzed and ranked based on the EC50 values.
molecule,measurement,setting,value
B1,EC50 (ng/mL) hS15,human Siglec-15 [1],174.3 ng/mL
same,"internalization, fold increase over isotype control",Siglec-15 positive cells,approximately 6 fold
same,inhibition of binding of A2A5C7E8 (benchmark 2),human Siglec-15 [2]; across all concentrations (FIG. 18D),outperformed 5G12
same,inhibition of binding of 5G12 (benchmark 1),human Siglec-15 [2]; at concentrations above 10 nM (FIG. 18C),outperformed A2A5C7E8
same,EC50 (ng/mL) mS15,mouse Siglec-15,84.88 ng/mL
